# From KR20190044006A (dated 2019)
# B1: 단일 클론 항체 AT2F7 (antibody, V domains shown)
# VH: EVKLVESGGGLVKPGGSLKLSCAASGFTFSSYTMSWVRQTPEKRLEWVATISSGGSYTYYPDSVKGRFTISRDNAKNTLYLQMSSLKSEDTAMYYCTRDLYDGYFYYAMDYWGQGTSVTVSS
# VL: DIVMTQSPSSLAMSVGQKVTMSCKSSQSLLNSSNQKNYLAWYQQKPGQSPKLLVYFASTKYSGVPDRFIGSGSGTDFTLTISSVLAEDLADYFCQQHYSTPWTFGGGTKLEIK
# Biological target: 재조합 MERS-CoV S1-RBD 단백질 (MERS-CoV EMC/2012, UniProt K9N5Q8 358-606)
# Assay: ELISA screening of hybridoma supernatants on RBD antigen
binder,measurement,value
B1,binding result,binds
